Like-named read-outs stand apart in the source and are kept apart here.
What was measured:
[1] = test system: Soluble calf skin Type I collagen; experiment: Collagenase activity, SDS-PAGE; assay type: biochemical
Description: (§1) FIGS. 9A and 9B depict SDS PAGE of type I collagen (soluble calf skin collagen) after digestion with recombinant human cathepsin O2 and L and bovine trypsin. FIG. 9A: Collagenase activity: Digestion of soluble calf skin collagen at 28° C. and at pH 4.0, 5.0, 5.5, 6.0, 6.5, 7.0 by human cathepsins O2, S and L (each 50 nM) for 12 hours. The reaction was stopped by addition of 10 μM E-64. Untreated soluble collagen was used as standard (S). FIG. 9B: Gelatinase activity: Digestion of denatured soluble calf skin collagen (10 min heated at 70° C.) at 28° C. and at pH 4.0, 5.0, 5.5, 6.0, 6.5, 7.0 by human cathepsin O2 (0.1 nM), cathepsin L (0.2 nM) and human cathepsin S (1 nM). Molecular mass standards are indicated in the left lane.
(§2) Soluble calf skin Type I collagen was diluted to 0.4 mg/ml into 100 mM-sodium acetate buffer, pH 4.5, 5.0, 5.5, in 100 mM-potassium phosphate buffer, pH 6.0, 6.5 and 100 mM-Tris/HCl, pH 7.0 containing 2 mM-dithiotreitol/2 mM-EDTA. Human cathepsins O2, S and L and bovine trypsin (Sigma) were incubated at concentrations of 100 nM enzyme concentration for 10 hours at 28° C. To measure the gelatinase activity of cathepsins O2 and S, Type I collagen was heated for 10 min at 70° C. prior to incubation with the proteases. In the presence of 1 nM proteases the reaction mix was incubated for 30 min at 28° C. The samples were subjected to SDS polyacrylamide electrophoresis using 4-20% Tris-glycine gels (Novex, San Diego, Calif.).

pH activity profile = assay type: biochemical; conditions: for pH optimum: calculated from (pK1 + pK2)/2
Description: Initial rates of substrate hydrolysis were monitored as described above. The pH activity profile of human cathepsin O2 was obtained at 1 μM substrate (Z-FR-MCA) concentration ([S]<<Km where the initial rate vo is directly proportional to the kcat/Km value). The following buffers were used for the pH activity profile: 100 mM sodium citrate (pH 2.8-5.6) and 100 mM sodium phosphate (pH 5.8-8.0). All buffers contained 1 mM EDTA and 0.4 M NaCl to minimize the variation in ionic strength. A three protonation model (Khouri et al., Biochem. 30:8929-8936 (1991)) was used for least square regression analysis of the pH activity data. The data were fitted to the following equation.
(kcat/Km)obs=(kcat/Km)/([H^+]/K1+1+K2/[H^+])

pH stability at 37° C. = assay type: physicochemical
Description: The residual activity was measured in time intervals using the above described fluorimetric substrate assay. The pH stability of cathepsins O2, S and L was studied at three different pH values. Recombinant human cathepsins O2, S and L were incubated at 37° C. in 100 mM sodium acetate buffer, pH 5.5, in 100 mM potassium phosphate buffer, pH 6.5 and in 100 mM Tris/HCl, pH 7.5 containing 5 mM dithiothreitol and 2.5 mM EDTA. Incubating for 0.5, 1, 2 and 4 hours, the activity remaining was determined using 5 μM Z-FR-MCA for cathepsin O2 (100 mM potassium phosphate buffer, pH 6.5) and cathepsin L (100 mM sodium acetate buffer, pH 5.5) and 5 μM Z-VVR-MCA for cathepsin S (100 mM potassium phosphate buffer, pH 6.5).

[^3H] elastin = Elastin degradation assay; assay type: biochemical
Description: Elastin (2 mg) was incubated in I ml buffer containing 2.5 mM dithiothreitol, 2.5 mM EDTA and 0.05% Triton X-100 for the cathepsin O2, S and L assays. Aliquots were withdrawn after 10, 20, 30, 50, 90, 120 and 180 min, centrifuged for 1 min at 14,000×g and counted in a 24-well plate containing scintillation fluid with Liquid Scintillation counter (1450 Microbeta Plus, Wallac/Pharmacia). Concentrations of human cathepsins O2, S and L and bovine elastase in the elastin degradation assay were 65 nM, 28 nM, 80 nM and 80 nM, respectively. To determine the pH effect on protease activity the digests were carried out at pH 4.5 and 5.5 (100 mM sodium acetate, 2.5 mM each dithiothreitol and EDTA, 0.05% Triton X-100), and at pH 7.0 (100 mM Tris/HCl, 2.5 mM each of dithiothreitol and EDTA, 0.05% Triton X-100). Pancreatic bovine elastase (Boehringer, Mannheim, Ind.) was assayed under the same conditions except that neither dithiothreitol nor EDTA was added to the incubation mixture.

[2] = test system: denatured soluble calf skin collagen; experiment: Gelatinase activity, SDS-PAGE; assay type: biochemical
Description: as §1, §2

[3] = from literature; cited from earlier work

| Molecule | collagenolytic activity [1] | pH optimum (pH activity profile) | Residual activity (%) (pH stability at 37° C.; pH 5.5, 37° C., 0.5 hr) | Residual activity (%) (pH stability at 37° C.; pH 5.5, 37° C., 1 hr) | Residual activity (%) (pH stability at 37° C.; pH 5.5, 37° C., 2 hr) | Residual activity (%) (pH stability at 37° C.; pH 5.5, 37° C., 4 hr) | Residual activity (%) (pH stability at 37° C.; pH 6.5, 37° C., 0.5 hr) | Residual activity (%) (pH stability at 37° C.; pH 6.5, 37° C., 2 hr) | Residual activity (%) (pH stability at 37° C.; pH 6.5, 37° C., 4 hr) | Residual activity (%) (pH stability at 37° C.; pH 7.5, 37° C., 0.5 hr) | Residual activity (%) (pH stability at 37° C.; pH 7.5, 37° C., 1 hr) | Residual activity (%) (pH stability at 37° C.; pH 7.5, 37° C., 2 hr) | Residual activity (%) (pH stability at 37° C.; pH 7.5, 37° C., 4 hr) | elastinolytic activity ([^3H] elastin; pH 4.5) | elastinolytic activity ([^3H] elastin; pH 5.5) | elastinolytic activity ([^3H] elastin; pH 7.0) | gelatinase activity [2] | pK1 of pH activity profile [3] | pK2 of pH activity profile [3] | width of the pH profile [3] | further results |
| --- | --- | --- | --- | --- | --- | --- | --- | --- | --- | --- | --- | --- | --- | --- | --- | --- | --- | --- | --- | --- | --- |
| trypsin: bovine trypsin (Sigma) (protein, UniProt P00760 24-246, looked up) Serine protease 1: IVGGYTCGANTVPYQVSLNSGYHFCGGSLINSQWVVSAAHCYKSGIQVRLGEDNINVVEGNEQFISASKSIVHPSYNSNTLNNDIMLIKLKSAASLNSRVASISLPTSCASAGTQCLISGWGNTKSSGTSYPDVLKCLKAPILSDSSCKSAYPGQITSNMFCAGYLEGGKDSCQGDSGGPVVCSGKLQGIVSWGSGCAQKNKPGVYTKVCNYVSWIKQTIASN | No degradation |  |  |  |  |  |  |  |  |  |  |  |  |  |  |  |  |  |  |  |  |
| cathepsin O2: recombinant human cysteine protease of the papain family, mature enzyme expressed in Sf9 cells (protein) APDSVDYRKKGYVTPVKNQGQCGSCWAFSSVGALEGQLKKKTGKLLNLSPQNLVDCVSENDGCGGGYMTNAFQYVQKNRGIDSEDAYPYVGQEESCMYNPTGKAAKCRGYREIPEGNEKALKRAVARVGPVSVAIDASLTSFQFYSKGVYYDESCNSDNLNHAVLAVGYGIQKGNKHWIIKNSWGENWGNKGYILMARNKNNACGIANLASFPKM |  | 6.1 | 91% | 88% | 70% | 52% | 85% | 22% | 15% | 11% | 0% | 0% | 0% | 245 mg/min/μmol enzyme | 286 mg/min/μmol enzyme | 170 mg/min/μmol enzyme | powerful gelatinase activity |  |  |  | pK1′ of pH activity profile (pH activity profile): 3.43 ± 0.05; width of the pH profile (pH activity profile): 4.15; pK1 of pH activity profile (pH activity profile; listed as Human cathepsin O2): 4.0; pK2 of pH activity profile (pH activity profile; listed as Human cathepsin O2): 8.13; pK1 of pH activity profile (pH activity profile; listed as human cathepsin O2): 4.00 ± 0.02; pK2 of pH activity profile (pH activity profile; listed as human cathepsin O2): 8.13 ± 0.01; pH of maximal elastinolytic activity ([^3H] elastin): 5.5; elastinolytic activity relative to pancreatic elastase ([^3H] elastin; neutral pH): 2.4 times; elastinolytic activity relative to cathepsin L ([^3H] elastin; pH 5.5): ~9 times; degradation of Type I collagen ([1]; between pH 5.0 and 6.0 at 28° C.): extensively degraded; degradation of Type I collagen ([1]; pH 4.5 and pH 7.0, 28° C.): much less pronounced; time to total degradation of denatured collagen ([2]; 0.1 nM enzyme, pH range of 5.0 to 7.0): ≤ 30 min |
| papain: cysteine protease, literature comparison (protein, UniProt P00784 134-345, looked up) Papain: IPEYVDWRQKGAVTPVKNQGSCGSCWAFSAVVTIEGIIKIRTGNLNEYSEQELLDCDRRSYGCNGGYPWSALQLVAQYGIHYRNTYPYEGVQRYCRSREKGPYAAKTDGVRQVQPYNEGALLYSIANQPVSVVLEAAGKDFQLYRGGIFVGPCGNKVDHAVAAVGYGPNYILIKNSWGTGWGENGYIRIKRGTGNSYGVCGLYTSSFYPVKN |  | 6.5 |  |  |  |  |  |  |  |  |  |  |  |  |  |  |  | 4.54 ± 0.29 | 8.45 ± 0.02 | 3.91 | pK1′ of pH activity profile [3]: 3.58 ± 0.29 |
| cathepsin S: recombinant human cathepsin S expressed using the baculovirus expression system (protein) LPDSVDWREKGCVTEVKYQGSCGACWAFSAVGALEAQLKLKTGKLVSLSAQNLVDCSTEKYGNKGCNGGFMTTAFQYIIDNKGIDSDASYPYKAMDQKCQYDSKYRAATCSKYTELPYGREVDLKEAVANKGPVSVGVDARHPSFFLYRSGVYYEPSCTQNVNHGVLVVGYGDLNGKEYWLVKNSWGHNFGEEGYIRMARNKGNHCGIASFPSYPEI | very weak collagenolytic activity | 6.1 | 100% | 95% | 92% | 83% | 100% | 94% | 71% | 91% | 72% | 61% | 60% | 146 mg/min/μmol enzyme | 102 mg/min/μmol enzyme | 55 mg/min/μmol enzyme | significant weaker activity than the cathepsins O2 and L | 4.49 ± 0.03 | 7.82 ± 0.03 | 3.35 | Residual activity (%) (pH stability at 37° C.; pH 6.5, 37° C., 1 hr): 100% |

Reference: US6544767B1, “Cathespin O2 protease” (Axys Pharmaceuticals, Inc., priority 1994, dated 2003)
